This note sets out measurements from patent US20250051464A1 (IMMUNOME, published 2025).

One assay deals with T1, FcGR1 (human, UniProt P12314 16-374).
T1 construct: whole, on cells; An Fc receptor
The assay can be described thus: flow cytometry, 6,000 human membrane proteins expressed on the surface of HEK293 cells. On the technique in general: In flow cytometry, cells or beads pass a laser one at a time.

In assay [1] the target is EphA4 (homologous receptor, screening at Integral Molecular) (UniProt P54764 20-986, limits assumed). In words: screening at Integral Molecular.
Assay [2] concerns the target T2, mouse EphA2 on mouse tumor cells (CT26, EMT6, MC38, RENCA) (mouse, UniProt Q03145 26-977).
T2 construct: whole, on cells
The assay can be described thus: flow cytometry, surface binding on CT26 cells (in vitro). The procedure: (§1) Surface binding of the antibodies to in vitro grown cell lines was assessed by flow cytometry. Tumor cells were detached from their culture plate using Versene and counted. Cells were staining in BSA-containing buffer with primary antibody for 30 minutes at 4° C. with shaking. Following, cells were washed and stained with secondary PE-labeled antibody for 30 minutes at 4° C. with shaking. Before analysis on an Intellicyt iQue3 scanner, cells were counterstained with DAPI. MedFI values from live, single cells was expressed as fold over isotype control.

The target of assay [3] is T3, EphA4_ECD (aa 23-546), full ECD, displayed on yeast (human, UniProt P54764 23-546).
T3 construct: also called EphA4 full ECD; not shown: Aga2 fusion partner followed by an internal HA tag; C-terminal Myc tag
The assay can be described thus: yeast surface display, flow cytometry titration of AB-008873. How it is done:
Yeast cells were cultured in SDCAA (Teknova, S0543) and induced with SGCAA (Teknova, 50542). Cells were stained with pairs of primary and secondary antibodies. […] Chicken IgY anti-cMyc (Life technologies A21281) and Goat anti Chicken IgY FITC (Life technologies A11039) were used to assess expression levels. The analysis was run on the iQue3 flow cytometer. […] The FN2 domain of EphA2 alone is sufficient to mediate binding and expresses at high levels. […] FIG. 6. […] FN2 domain alone also has high relative expression. […] Swapping the FN1 domain from EphA4 into EphA2 enables binding of the epitope (diamond). Binding is lost when the FN2 domain from EphA4 is swapped into EphA2.

The target of assay [4] is T4, human EphA2 (ephrin receptor A2), on cells (human, UniProt P29317 24-976).
T4 construct: Used for HEK293 transfectants, A549 and other human tumor cell lines
In words: flow cytometry binding on A549 cells. How it is done:
as §1

Assay [5] concerns the target T4, human EphA2 (ephrin receptor A2), on …. In words: flow cytometry binding on A549 cells, MedFI. The procedure:
as §1

In a further assay the target is T5, hEphA2-FN12-(327-534)-Fc (human, UniProt P29317 327-534).
T5 construct: Captured by anti-human Fc on a CM5 chip; also called FN1-FN2 domains of EphA2 fused to human Fc
In words: SPR Biacore, 25 C, EphA2-Fc captured by anti-human Fc, Fab as analyte, 1:1 Langmuir. The procedure: (§2) The hEphA2-Fc fusions were captured with an anti-human Fc immobilized to a CM5 chip. Biacore® assays were conducted at 25° C. using HBS-EP+ buffer (0.01 M HEPES pH 7.4, 0.15 M NaCl, 3 mM EDTA, 0.005% v/v Surfactant P20). Data was double-reference subtracted and data was analyzed using 1:1 Langmuir binding model and steady-state model in Biacore Evaluation software.
(§3) Binding to hEphA2-ECD-Fc tested using 100, 300, and 900 nM analyte. Binding to all other ligands tested using 33.3, 100, and 300 nM analyte.
On the technique in general: Surface plasmon resonance follows binding to a sensor surface in real time, without labels.

In the next assay the target is T6, hEphA2-clv385-534-Fc (human, UniProt P29317 385-534).
T6 construct: Recombinant fragment representing a cleavage form
Described as above. How it is done: as §2, §3

A further assay concerns the target T7, hEphA2-clv395-534-Fc (human, UniProt P29317 395-534).
T7 construct: Recombinant fragment representing a cleavage form
The assay is described as above. The procedure:
as §2, §3

In another assay the target is T8, hEphA2-clv435-534-Fc (human, UniProt P29317 435-534).
T8 construct: Recombinant fragment representing a cleavage form
The assay is described as above. How it is done: as §2, §3

For a further assay, the target named is T9, hEphA2-FN2-(437-534)-Fc (human, UniProt P29317 437-534).
T9 construct: Captured by anti-human Fc on a CM5 chip; also called FN2 domain of EphA2 fused to human Fc
The assay is described as above. The procedure:
as §2, §3

For another assay, the target named is T10, hEphA2-clv432-534-Fc (human, UniProt P29317 432-534).
T10 construct: Recombinant fragment representing a cleavage form
The description is as above. The procedure:
as §2, §3

In assay [6] the target is T4, human EphA2 (ephrin receptor A2), on …. In words: flow cytometry on A549 cells, EC50 column.
The target is the same in assay [7]. In words: flow cytometry on A549 cells. How it is done: as §1

Substitutions are numbered along the chain they refer to.

T8 sequence (P29317 435-534): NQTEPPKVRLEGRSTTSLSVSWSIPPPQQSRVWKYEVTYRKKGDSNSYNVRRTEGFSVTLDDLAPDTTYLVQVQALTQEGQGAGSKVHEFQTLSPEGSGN
T7 sequence (P29317 395-534): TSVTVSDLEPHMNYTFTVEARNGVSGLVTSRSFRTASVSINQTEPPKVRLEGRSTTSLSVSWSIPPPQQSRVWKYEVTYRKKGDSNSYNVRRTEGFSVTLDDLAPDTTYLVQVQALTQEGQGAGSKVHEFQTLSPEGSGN
T9 sequence (P29317 437-534): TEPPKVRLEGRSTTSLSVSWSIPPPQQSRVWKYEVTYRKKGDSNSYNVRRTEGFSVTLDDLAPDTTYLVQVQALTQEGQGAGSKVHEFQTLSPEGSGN
T5 sequence (P29317 327-534): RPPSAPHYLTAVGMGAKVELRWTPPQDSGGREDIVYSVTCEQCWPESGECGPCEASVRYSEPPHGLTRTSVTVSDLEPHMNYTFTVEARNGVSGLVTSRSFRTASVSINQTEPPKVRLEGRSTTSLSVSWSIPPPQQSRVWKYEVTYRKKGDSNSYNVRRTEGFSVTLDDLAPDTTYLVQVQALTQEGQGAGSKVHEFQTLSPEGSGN
T10 sequence (P29317 432-534): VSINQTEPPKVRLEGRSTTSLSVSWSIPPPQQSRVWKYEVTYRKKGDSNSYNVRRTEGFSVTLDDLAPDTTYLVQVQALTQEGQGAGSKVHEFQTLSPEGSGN
T4 sequence (P29317 24-976 limits assumed): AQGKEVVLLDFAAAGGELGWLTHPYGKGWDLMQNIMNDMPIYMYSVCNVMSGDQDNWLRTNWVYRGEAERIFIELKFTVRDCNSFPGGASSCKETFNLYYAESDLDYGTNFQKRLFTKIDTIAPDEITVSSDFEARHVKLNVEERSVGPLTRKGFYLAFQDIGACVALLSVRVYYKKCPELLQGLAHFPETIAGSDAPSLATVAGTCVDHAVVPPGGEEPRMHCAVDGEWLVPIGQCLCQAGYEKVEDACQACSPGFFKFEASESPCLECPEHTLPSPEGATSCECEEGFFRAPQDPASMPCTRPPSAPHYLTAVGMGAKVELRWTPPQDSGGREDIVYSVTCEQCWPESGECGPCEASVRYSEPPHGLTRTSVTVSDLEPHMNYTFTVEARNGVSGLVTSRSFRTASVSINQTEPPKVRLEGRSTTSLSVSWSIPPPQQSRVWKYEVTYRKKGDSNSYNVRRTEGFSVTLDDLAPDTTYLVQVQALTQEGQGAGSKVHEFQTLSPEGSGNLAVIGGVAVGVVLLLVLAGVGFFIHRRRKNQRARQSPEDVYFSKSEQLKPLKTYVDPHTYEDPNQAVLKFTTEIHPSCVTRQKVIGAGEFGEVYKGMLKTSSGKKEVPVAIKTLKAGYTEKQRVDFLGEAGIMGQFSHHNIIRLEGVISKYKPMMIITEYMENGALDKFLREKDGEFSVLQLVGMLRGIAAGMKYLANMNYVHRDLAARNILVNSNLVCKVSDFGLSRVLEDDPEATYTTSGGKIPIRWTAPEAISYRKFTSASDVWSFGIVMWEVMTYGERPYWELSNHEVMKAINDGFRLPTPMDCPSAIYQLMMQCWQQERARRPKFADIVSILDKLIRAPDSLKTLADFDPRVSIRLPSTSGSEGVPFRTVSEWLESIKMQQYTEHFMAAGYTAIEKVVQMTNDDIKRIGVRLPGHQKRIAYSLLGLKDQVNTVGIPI
T6 sequence (P29317 385-534): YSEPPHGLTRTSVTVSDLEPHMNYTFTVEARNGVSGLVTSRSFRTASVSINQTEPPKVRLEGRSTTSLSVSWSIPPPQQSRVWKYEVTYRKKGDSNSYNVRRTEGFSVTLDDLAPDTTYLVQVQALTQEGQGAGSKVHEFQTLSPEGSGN
EphA4 (homologous receptor, screening at Integral Molecular), sequence (P54764 20-986 limits assumed): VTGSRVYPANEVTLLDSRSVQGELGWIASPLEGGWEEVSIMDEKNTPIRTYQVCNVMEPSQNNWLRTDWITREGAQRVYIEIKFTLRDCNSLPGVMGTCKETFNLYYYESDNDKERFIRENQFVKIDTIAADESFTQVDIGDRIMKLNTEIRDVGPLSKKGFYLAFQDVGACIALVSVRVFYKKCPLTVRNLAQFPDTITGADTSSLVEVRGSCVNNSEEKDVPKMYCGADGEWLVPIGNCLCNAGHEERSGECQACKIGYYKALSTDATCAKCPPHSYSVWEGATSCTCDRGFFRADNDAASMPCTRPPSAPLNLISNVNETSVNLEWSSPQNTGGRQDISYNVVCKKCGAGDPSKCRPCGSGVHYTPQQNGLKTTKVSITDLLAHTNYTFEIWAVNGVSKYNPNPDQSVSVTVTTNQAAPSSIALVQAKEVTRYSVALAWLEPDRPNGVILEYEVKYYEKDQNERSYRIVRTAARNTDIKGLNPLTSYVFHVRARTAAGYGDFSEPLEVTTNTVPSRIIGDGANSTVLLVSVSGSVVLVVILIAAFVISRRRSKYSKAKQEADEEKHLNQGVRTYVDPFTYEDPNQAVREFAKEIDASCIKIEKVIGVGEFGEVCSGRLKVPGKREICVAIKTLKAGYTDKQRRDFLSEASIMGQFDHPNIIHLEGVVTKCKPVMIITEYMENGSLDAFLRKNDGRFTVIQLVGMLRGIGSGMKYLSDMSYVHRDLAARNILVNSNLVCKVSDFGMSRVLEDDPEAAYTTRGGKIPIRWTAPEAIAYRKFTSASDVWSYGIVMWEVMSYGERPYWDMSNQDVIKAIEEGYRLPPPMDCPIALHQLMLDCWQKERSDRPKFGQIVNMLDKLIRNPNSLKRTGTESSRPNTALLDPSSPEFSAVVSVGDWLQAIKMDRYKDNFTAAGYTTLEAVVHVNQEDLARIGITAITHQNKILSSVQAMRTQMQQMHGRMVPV
T2 sequence (Q03145 26-977): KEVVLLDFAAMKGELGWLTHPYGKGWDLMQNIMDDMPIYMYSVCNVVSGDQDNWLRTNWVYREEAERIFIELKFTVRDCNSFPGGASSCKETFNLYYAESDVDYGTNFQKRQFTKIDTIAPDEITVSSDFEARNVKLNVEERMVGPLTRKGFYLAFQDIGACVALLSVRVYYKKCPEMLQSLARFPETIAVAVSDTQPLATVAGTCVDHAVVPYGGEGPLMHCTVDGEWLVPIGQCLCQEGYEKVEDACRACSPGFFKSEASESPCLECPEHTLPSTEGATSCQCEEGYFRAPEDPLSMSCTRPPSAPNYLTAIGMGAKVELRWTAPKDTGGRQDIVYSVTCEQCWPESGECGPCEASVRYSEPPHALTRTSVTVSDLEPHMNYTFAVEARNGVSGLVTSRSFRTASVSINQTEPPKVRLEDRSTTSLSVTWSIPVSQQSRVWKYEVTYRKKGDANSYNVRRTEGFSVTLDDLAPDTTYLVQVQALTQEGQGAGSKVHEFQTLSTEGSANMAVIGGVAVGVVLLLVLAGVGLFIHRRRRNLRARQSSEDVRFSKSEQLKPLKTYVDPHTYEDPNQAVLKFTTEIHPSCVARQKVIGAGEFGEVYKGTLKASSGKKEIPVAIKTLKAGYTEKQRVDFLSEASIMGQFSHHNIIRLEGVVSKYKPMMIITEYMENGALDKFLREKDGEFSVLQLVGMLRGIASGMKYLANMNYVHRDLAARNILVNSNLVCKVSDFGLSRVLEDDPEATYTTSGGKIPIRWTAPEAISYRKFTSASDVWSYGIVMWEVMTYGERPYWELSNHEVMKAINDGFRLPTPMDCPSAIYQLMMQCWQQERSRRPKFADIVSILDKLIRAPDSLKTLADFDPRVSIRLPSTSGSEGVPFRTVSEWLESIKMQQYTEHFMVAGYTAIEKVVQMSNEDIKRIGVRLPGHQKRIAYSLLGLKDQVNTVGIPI
T1 sequence (P12314 16-374): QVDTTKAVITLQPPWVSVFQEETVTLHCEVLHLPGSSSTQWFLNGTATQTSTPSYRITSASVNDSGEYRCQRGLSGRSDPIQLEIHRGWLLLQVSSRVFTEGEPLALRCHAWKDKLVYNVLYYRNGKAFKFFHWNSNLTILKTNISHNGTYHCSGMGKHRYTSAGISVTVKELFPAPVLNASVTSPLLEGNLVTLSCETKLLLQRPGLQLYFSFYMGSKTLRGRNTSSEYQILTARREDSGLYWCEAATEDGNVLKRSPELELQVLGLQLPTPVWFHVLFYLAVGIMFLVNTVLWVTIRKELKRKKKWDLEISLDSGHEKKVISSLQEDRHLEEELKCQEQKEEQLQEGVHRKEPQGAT
T3 sequence (P54764 23-546): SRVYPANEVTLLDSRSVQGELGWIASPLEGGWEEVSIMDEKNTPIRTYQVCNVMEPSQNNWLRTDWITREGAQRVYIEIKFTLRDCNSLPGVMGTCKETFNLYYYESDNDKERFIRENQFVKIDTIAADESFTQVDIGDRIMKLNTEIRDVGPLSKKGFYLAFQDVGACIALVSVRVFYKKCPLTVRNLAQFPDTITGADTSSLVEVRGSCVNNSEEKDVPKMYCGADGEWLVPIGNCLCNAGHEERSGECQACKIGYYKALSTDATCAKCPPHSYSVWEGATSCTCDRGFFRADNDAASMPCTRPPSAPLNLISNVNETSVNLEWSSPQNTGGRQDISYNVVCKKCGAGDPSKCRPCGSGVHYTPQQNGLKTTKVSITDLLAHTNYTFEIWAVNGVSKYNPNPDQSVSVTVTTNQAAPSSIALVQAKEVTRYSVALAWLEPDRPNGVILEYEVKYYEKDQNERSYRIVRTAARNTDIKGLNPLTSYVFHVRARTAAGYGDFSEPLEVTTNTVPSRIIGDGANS

B1: AB-008873 (mouse IgG2a format) (antibody)
heavy: QVQLQQWGAGLLKPSETLSLTCAVYGGSFSDYYWSWIRQPPGKGLEWIGEVNHRGSINYNNYNPSLKSRVTISVDPSKNQFSLKLTSVTAADTAVYYCAKPLRPHCTNGVCYSGDAFDIWGQGTMVTVASAKTTAPSVYPLAPVCGDTTGSSVTLGCLVKGYFPEPVTLTWNSGSLSSGVHTFPAVLQSDLYTLSSSVTVTSSTWPSQSITCNVAHPASSTKVDKKIEPRGPTIKPCPPCKCPAPNLLGGPSVFIFPPKIKDVLMISLSPIVTCVVVDVSEDDPDVQISWFVNNVEVHTAQTQTHREDYNSTLRVVSALPIQHQDWMSGKEFKCKVNNKDLPAPIERTISKPKGSVRAPQVYVLPPPEEEMTKKQVTLTCMVTDFMPEDIYVEWTNNGKTELNYKNTEPVLDSDGSYFMYSKLRVEKKNWVERNSYSCSVVHEGLHNHHTTKSFSRTPG
light: SYVLTQPPSVSVAPGQTARITCGGNNIGSKNVHWYQQKPGQAPVLVVYDDSDRPSGIPEQFSGSNSGNTATLTISRVEAGDEADYYCQVWDSSSDHLVFGGGTKLTVLGQPKSSPSVTLFPPSSEELETNKATLVCTITDFYPGVVTVDWKVDGTPVTQGMETTQPSKQSNNKYMASSYLTLTARAWERHSSYSCQVTHEGHTVEKSLSRADCS
For B1, the values for the binding result (in the assay with FcGR1; in [1]; in assay [3]) were “binds”, “no binding” and “no binding (tested: about 300 nM)”, respectively. Further, in assay [2], the “fold over isotype control (MedFI)” value was 16 fold.

B2: AB-009806 (antibody, mouse IgG2a, V domains shown)
VH: QVQLQQWGAGLLKPSETLSLTCAVYGGSFSDYYWSWIRQPPGKGLEWIGEINHSGSTNYNPSLKSRVTISVDPSKNQFSLKLTSVTAADTAVYYCAKPFRPHCTNGVCYSGDAFDIWGQGTMVTVSS
VL: SYVLTQPPSVSVAPGQTARITCGGNNIGTKNVHWYQQKPGQAPVLVVYDDSDRPSGIPEQFSGSNSGNTATLTISRVEAGDEADYYCQVWDSSSDHLVFGGGTKLTVL
By EC50 (read off the curve) is commonly meant the concentration needed to bring the measured effect to its halfway point. With B2, the “Flow Delta activity (MedFI)” value in [4] was 231000 MedFI. Also, the “EC50 (read off the curve)” value in assay [5] is about 20 nM.

B3: AB-010699 human Fab fragment (Fab, V domains shown)
VH: QVQLQQWGAGLLKPSETLSLTCAVYGGSFSGYYWSWIRQPPGKGLEWIGEINHRGSINYNNYNPSLKSRVTISVDTSKNQFSLKLSSVTAADTAVYYCAKPLRPHCINGVCYSGDAFDIWGQGTMVTVAS
VL: B2 VL with T29Y, Q60R, S92H, L97V
notes: Human Fab fragment
One may read the Kd as the equilibrium constant for the complex coming apart. The low end stands for a tighter complex, the high end for a looser complex. As a reminder, the koff is the rate constant with which the complex falls apart. Higher therefore signals a short-lived complex. For orientation: kon means the second-order rate constant of association. For the molecule B3, the Kd with hEphA2-FN12-(327-534)-Fc came to 8.6 nM; with hEphA2-clv385-534-Fc, 12 nM; with hEphA2-clv395-534-Fc, 12 nM; with hEphA2-clv435-534-Fc it was 9.3 nM; with hEphA2-FN2-(437-534)-Fc, 8.6 nM; with hEphA2-clv432-534-Fc, 9.6 nM. Further, the dissociation rate constant (koff) with hEphA2-FN12-(327-534)-Fc came out at 0.043 s⁻¹; with hEphA2-clv385-534-Fc it was 0.072 s⁻¹; with hEphA2-clv395-534-Fc, 0.07 s⁻¹; with hEphA2-clv435-534-Fc it was 0.078 s⁻¹; with hEphA2-FN2-(437-534)-Fc it was 0.085 s⁻¹; with hEphA2-clv432-534-Fc it was 0.075 s⁻¹. For the same molecule, the association rate constant (kon) was 5e+06 M⁻¹ s⁻¹ in the assay with hEphA2-FN12-(327-534)-Fc; 6.05e+06 M⁻¹ s⁻¹ with hEphA2-clv385-534-Fc; 5.72e+06 M⁻¹ s⁻¹ with hEphA2-clv395-534-Fc; 8.42e+06 M⁻¹ s⁻¹ with hEphA2-clv435-534-Fc; 1e+07 M⁻¹ s⁻¹ with hEphA2-FN2-(437-534)-Fc; 7.78e+06 M⁻¹ s⁻¹ with hEphA2-clv432-534-Fc.

B4: AB-009817 (antibody, mouse IgG2a, V domains shown)
VH: B3 VH with G31D, I51V, T76P, S86T, I107T, G109A
VL: B2 VL with T29S
On to B4, for which, in assay [6], the binding result is “no binding”. Also, the “Delta (flow)” value in [7] turned out to be 0.
